Positions count from the first letter of the chain named. Names may count otherwise.
Columns and labels:
human SIRPA ECD = biological target: T1, human SIRPA ECD (human, UniProt P78324 31-373); assay: direct ELISA on coated recombinant ECD (30 ng/well), HRP-conjugated secondary antibody, luminescence
T1 construct: extracellular domain; also called recombinant extracellular domain of SIRPA
Method: (§1) Briefly, recombinant extracellular domain of PDGFRb, FAPα, ULBP1, uPAR, IGF1R, SIRPA, PD-L1, ANTXR1, CD248, or GPC3 (30 ng/well) was coated on white optiplate™-384 well HB plate. After overnight coating, standard direct ELISA assay was performed. Luminescence signal was detected after using secondary antibody with HRP conjugated. Binding activity of each antibody was determined based on dose dependent binding curve.

human CD248 ECD = biological target: T2, human CD248 ECD (human, UniProt Q9HCU0 18-687); assay: as above
T2 construct: extracellular domain; also called recombinant extracellular domain of CD248
T2 sequence (looked up): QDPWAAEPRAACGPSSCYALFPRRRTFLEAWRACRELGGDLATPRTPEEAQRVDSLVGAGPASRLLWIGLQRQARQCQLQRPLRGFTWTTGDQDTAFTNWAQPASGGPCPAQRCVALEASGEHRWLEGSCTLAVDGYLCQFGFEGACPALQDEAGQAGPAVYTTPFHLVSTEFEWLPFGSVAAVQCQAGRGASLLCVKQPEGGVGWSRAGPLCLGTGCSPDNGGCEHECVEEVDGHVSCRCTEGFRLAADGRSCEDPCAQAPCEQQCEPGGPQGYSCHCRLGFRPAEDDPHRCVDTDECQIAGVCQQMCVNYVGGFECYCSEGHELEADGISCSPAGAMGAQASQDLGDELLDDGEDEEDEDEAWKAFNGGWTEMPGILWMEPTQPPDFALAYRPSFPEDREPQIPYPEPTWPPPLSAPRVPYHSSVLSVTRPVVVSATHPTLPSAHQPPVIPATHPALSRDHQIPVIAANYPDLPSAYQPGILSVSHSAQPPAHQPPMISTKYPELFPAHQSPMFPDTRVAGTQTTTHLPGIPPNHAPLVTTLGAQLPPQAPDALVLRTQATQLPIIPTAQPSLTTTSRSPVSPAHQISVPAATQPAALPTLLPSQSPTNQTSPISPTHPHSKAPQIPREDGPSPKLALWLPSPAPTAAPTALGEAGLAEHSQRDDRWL
Method: as §1

[1] = biological target: T3, IGF-1R on TGFb1-activated primary human HSC cells (human, UniProt P08069 31-1367); assay: flow cytometry on TGFb1-activated primary human HSC cells, 10 ug/ml antibody, fluorophore-conjugated secondary antibody
T3 construct: whole, on cells
Method: Relative expression levels of the antigens on activated HSC were assayed using FACS. Human primary hepatic stellate cells (ScienCell, 5301) were cultured in culture medium (ScienCell, 5300). The cells were activated using 2 ng/ml human TGFb1 (Sinobiological, 10804-HNAC) for 24 hours. These cells were then collected for FACS assay. Briefly, the cells were incubated with 10 μg/ml primary antibody in blocking buffer (10% FBS in PBS) at 4 °C for 1 hour. After two rounds of PBS washes, the cells were stained with secondary antibody conjugated with a fluorophore. The mean fluorescence intensity was measured using FACS. Among the antigens tested, fibroblast activation protein alpha (FAPα) was expressed at relatively high levels, while uPAR, IGF-1R, GPC3, CD248 and NKG2D ligands were expressed at relatively low levels on TGFb1-activated HSC cells.

human PD-L1 ECD = biological target: T4, human PD-L1 ECD (human, UniProt Q9NZQ7 19-238); assay: direct ELISA on coated recombinant ECD (30 ng/well), HRP-conjugated secondary antibody, luminescence
T4 construct: extracellular domain; also called recombinant extracellular domain of PD-L1
Method: as §1

human FAPa ECD = biological target: T5, human FAPa ECD (human, UniProt Q12884 26-760); assay: as above
T5 construct: extracellular domain; also called recombinant extracellular domain of FAPα
T5 sequence (looked up): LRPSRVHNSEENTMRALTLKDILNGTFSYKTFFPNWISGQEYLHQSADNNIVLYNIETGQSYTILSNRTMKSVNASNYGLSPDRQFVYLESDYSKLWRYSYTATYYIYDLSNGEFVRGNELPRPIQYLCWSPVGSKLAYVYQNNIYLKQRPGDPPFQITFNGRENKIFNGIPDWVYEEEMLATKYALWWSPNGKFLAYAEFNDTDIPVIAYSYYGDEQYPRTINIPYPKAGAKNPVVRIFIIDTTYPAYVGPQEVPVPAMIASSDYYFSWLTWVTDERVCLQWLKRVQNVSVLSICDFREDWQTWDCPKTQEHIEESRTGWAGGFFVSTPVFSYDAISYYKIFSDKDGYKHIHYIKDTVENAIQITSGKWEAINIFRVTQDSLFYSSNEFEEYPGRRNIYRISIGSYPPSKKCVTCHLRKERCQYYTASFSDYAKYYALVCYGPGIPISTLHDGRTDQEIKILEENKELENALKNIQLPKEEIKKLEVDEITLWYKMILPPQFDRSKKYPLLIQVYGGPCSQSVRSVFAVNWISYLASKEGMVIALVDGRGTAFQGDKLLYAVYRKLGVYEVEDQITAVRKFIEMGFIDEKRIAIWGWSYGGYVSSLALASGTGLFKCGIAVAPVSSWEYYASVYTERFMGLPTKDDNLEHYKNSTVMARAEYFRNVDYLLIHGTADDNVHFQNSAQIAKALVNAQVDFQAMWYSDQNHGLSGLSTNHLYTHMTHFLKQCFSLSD
Method: as §1

human ANTXR1 ECD = biological target: T6, human ANTXR1 ECD (human, UniProt Q9H6X2 33-321); assay: as above
T6 construct: extracellular domain; also called recombinant extracellular domain of ANTXR1
T6 sequence (looked up): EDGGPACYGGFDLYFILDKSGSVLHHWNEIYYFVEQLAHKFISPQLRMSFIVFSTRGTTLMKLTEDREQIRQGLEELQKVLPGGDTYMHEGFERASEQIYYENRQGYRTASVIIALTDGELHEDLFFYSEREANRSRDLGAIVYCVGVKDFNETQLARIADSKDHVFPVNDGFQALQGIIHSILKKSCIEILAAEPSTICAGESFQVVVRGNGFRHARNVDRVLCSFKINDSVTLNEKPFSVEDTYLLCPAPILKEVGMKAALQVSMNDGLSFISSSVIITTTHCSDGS
Method: as §1

human uPAR ECD = biological target: T7, human uPAR ECD (human, UniProt Q03405 23-305, limits assumed); assay: as above
T7 construct: extracellular domain; also called recombinant extracellular domain of uPAR
Method: as §1

T1 sequence (P78324 31-373): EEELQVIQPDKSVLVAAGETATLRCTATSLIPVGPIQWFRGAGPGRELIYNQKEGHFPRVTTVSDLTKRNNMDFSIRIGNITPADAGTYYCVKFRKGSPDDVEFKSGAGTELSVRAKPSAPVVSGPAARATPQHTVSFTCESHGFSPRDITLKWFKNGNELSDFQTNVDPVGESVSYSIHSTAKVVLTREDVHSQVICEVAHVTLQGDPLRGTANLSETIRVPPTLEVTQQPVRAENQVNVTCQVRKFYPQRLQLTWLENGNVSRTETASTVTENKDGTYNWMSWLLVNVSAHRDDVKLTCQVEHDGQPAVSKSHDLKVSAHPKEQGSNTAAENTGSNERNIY
T3 sequence (P08069 31-1367): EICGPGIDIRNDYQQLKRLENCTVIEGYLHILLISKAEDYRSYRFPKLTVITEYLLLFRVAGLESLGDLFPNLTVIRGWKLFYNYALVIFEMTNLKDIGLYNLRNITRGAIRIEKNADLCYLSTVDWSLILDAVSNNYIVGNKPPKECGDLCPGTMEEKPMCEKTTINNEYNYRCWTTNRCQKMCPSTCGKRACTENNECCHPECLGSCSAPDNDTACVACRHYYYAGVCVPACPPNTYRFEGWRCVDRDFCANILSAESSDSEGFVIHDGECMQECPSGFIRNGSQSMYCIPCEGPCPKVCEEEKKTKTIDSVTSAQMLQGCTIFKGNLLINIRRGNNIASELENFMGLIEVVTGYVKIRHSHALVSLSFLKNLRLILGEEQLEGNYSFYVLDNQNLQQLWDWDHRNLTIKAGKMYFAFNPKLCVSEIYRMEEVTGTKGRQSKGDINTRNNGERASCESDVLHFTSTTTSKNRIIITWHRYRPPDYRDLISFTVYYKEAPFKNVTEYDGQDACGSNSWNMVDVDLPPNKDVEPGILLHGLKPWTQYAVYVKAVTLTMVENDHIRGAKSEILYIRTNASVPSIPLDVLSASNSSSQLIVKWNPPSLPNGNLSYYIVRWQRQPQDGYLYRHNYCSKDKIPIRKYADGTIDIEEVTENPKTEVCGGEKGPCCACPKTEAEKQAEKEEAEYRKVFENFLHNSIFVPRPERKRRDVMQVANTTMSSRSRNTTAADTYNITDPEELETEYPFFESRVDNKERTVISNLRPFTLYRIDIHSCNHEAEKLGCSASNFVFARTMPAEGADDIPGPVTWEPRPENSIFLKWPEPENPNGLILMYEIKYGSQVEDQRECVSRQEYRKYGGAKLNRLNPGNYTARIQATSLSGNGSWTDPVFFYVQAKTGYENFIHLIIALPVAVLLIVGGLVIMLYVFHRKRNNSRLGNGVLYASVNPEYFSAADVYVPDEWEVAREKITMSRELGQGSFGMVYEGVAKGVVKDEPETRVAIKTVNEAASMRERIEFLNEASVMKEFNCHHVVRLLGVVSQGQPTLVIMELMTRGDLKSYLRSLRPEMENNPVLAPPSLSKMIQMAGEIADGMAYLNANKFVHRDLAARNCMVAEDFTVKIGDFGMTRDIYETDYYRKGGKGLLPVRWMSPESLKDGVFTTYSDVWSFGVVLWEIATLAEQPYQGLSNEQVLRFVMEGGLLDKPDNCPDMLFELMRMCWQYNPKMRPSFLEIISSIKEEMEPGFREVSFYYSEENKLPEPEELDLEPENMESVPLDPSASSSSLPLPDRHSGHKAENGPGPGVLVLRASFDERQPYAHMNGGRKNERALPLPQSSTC
T4 sequence (Q9NZQ7 19-238): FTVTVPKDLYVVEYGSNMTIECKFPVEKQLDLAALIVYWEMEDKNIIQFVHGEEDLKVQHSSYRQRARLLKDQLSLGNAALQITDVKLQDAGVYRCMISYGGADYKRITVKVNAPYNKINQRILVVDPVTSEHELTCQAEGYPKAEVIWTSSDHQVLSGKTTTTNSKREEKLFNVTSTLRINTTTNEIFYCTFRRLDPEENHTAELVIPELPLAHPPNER
T7 sequence (Q03405 23-305 limits assumed): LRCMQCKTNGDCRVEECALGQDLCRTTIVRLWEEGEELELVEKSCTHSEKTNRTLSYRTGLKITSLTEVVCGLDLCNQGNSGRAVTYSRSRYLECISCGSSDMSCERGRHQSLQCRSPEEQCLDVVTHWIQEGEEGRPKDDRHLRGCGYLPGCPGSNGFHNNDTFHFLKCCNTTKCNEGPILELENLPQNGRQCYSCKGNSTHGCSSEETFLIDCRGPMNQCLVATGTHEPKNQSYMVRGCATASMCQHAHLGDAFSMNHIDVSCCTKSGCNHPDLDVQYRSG

B1: α-SIRPA 1 S239D/1332E (antibody, human IgG1, kappa, V domains shown)
VH: EVQLQQSGAELVKPGASVKLSCTTSGFNFKDMYIHWVKQRPQQGLEWIGRIDPENDDTKYDPKFQDKATITADTSSNTAYLQLSNLPSEDTAVYYCARGNYVHWGQGTLVTVSA
VL: DIVLTQSPASLAVSLGQRATISCRASESVQYYGTSLMQWYQQKPGQPPKLLIYAASNVESGVPARFSGSGSGTDFSLNIYPVEEDDIAMYFCQQSRRVWTFGGGTKLEIKR
notes: Chimeric: murine variable regions, hIgG1 constant region with S239D/I332E; also called α-SIRPA 1 S239D/I332E; exemplary anti-SIRPA antibody (α-SIRPA 1)
Human SIRPA ECD
  EC50 (read off the curve): ~0.3 nM

B2: α-SIRPA 2 S239D/1332E (antibody, human IgG1, kappa, V domains shown)
VH: B1 VH with L20V, T24G, I34L, Q42E, D57S, I70L, S75A, L83I, N85S, P87T
VL: B1 VL with E59G, Y80H, S95T
notes: Chimeric: murine variable regions, hIgG1 constant region with S239D/I332E; also called α-SIRPA 2 S239D/I332E; exemplary anti-SIRPA antibody (α-SIRPA 2)
Human SIRPA ECD
  EC50 (read off the curve): ~0.3 nM

B3: α-CD248 1 mIgG2a S239D/1332E (antibody, V domains shown)
VH: QVQLQESGPGLVAPSQSLSITCTVSGFSLTGYGVNWVRQPPEKGLEWLGMIWVDGSTDYNSALKSRLNISKDKSKSQVFLKMNSLQTDDTARYYCARGGYGAMDYWGQGTSVTVSS
VL: DIQMNQSPSSLSASLGDTITITCHASQNINVWLTWYQQKPGNIPKLLIYKASNLHTGVPSRFSGSGSGTGFTLTISSLQPEDIATYYCQQGQSYPWTFGGGTKLEIKR
notes: mIgG2a with S239D/I332E; also called α-CD248 1 mIgG2a S239D/I332E; exemplary anti-CD248 antibody (α-CD248 1)
Human CD248 ECD
  EC50 (read off the curve): ~0.04 µg/mL

B4: α-IGF1R 2 S239D/1332E (antibody, human IgG1, kappa, V domains shown)
VH: EVQLLESGGGLVQPGGSLRLSCAASGFTFSNYPMYWVRQAPGKGLEWVSRISSSGGRTVYADSVKGRFTISRDNSKNTLYLQMNSLRAEDTAVYYCARDRWSRSAAEYGLGGYWGQGTLVTVSS
VL: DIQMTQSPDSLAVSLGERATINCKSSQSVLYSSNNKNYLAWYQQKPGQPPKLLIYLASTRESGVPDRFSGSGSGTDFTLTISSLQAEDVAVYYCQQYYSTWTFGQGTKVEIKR
notes: hIgG1 with S239D/I332E; also called α-IGF1R 2 S239D/I332E; exemplary anti-IGF1R antibody (α-IGF1R 2)
[1]
  binding result: binds

B5: α-PDL1 1 S239D/1332E (antibody, human IgG1, kappa, V domains shown)
VH: EVQLVQSGAEVKKPGATVKISCKVSGYTFTSYWMYWVRQARGQRLEWIGRIDPNSGSTKYNEKFKNRFTISRDNSKNTLYLQMNSLRAEDTAVYYCARDYRKGLYAMDYWGQGTTVTVSS
VL: AIQLTQSPSSLSASVGDRVTITCKASQDVGTAVAWYLQKPGQSPQLLIYWASTRHTGVPSRFSGSGSGTDFTFTISSLEAEDAATYYCQQYNSYPLTFGQGTKVEIKR
notes: Humanized, hIgG1 isotype, with S239D/I332E; also called α-PDL1 1 S239D/I332E; exemplary anti-PDL1 antibody (α-PDL1 1)
Human PD-L1 ECD
  EC50 (read off the curve): ~0.02 µg/mL

B6: α-FAPa 1 S239D/1332E (antibody, mouse IgG2a, kappa, V domains shown)
VH: QVQLVQSGAEVKKPGASVKVSCKTSRYTFTEYTIHWVRQAPGQRLEWIGGINPNNGIPNYNQKFKGRVTITVDTSASTAYMELSSLRSEDTAVYYCARRRIAYGYDEGHAMDYWGQGTLVTVSS
VL: DIVMTQSPDSLAVSLGERATINCKSSQSLLYSRNQKNYLAWYQQKPGQPPKLLIFWASTRESGVPDRFSGSGFGTDFTLTISSLQAEDVAVYYCQQYFSYPLTFGQGTKVEIKR
notes: also called α-FAPα 1 S239D/I332E
Human FAPa ECD
  binding result: binds

B7: α-ANTXR1 1 mIgG2a S239D/1332E (antibody, V domains shown)
VH: QVQLVQSGAEVKKPGTSVKVSCKVPGYTFSSYAISWVRQAPGQGLEWMGGIIPIFGTTNYAQKFQGRVTITGEESTSTVYMELSSLRSEDTAVYYCARDTDYMFDYWGQGTLVTVSS
VL: SSELTQDPVVSVALGETVSITCQGDNLRDFYASWYQQKPGQAPLLVMYGKNRRPSGIPDRFSGSTSGNTLSLTITGAQAEDEADYYCSSRDNSKHVVFGGGTKVTVLG
notes: mIgG2a with S239D/I332E; also called α-ANTXR1 1 mIgG2a S239D/I332E; exemplary anti-ANTXR1 antibody (α-ANTXR1 1)
Human ANTXR1 ECD
  EC50 (read off the curve): ~0.01 µg/mL

B8: α-CD248 2 mIgG2a S239D/1332E (antibody, V domains shown)
VH: QVQLQESGPGLVRPSQTLSLTCTASGYTFTDYVIHWVKQPPGRGLEWIGYINPYDDDTTYNQKFKGRVTMLVDTSSNTAYLRLSSVTAEDTAVYYCARRGNSYDGYFDYSMDYWGSGTPVTVSS
VL: DIQMTQSPSSLSASVGDRVTITCRASQNVGTAVAWLQQTPGKAPKLLIYSASNRYTGVPSRFSGSGSGTDYTFTISSLQPEDIATYYCQQYTNYPMYTFGQGTKVQIKR
notes: mIgG2a with S239D/I332E; also called α-CD248 2 mIgG2a S239D/I332E; exemplary anti-CD248 antibody (α-CD248 2)
Human CD248 ECD
  EC50 (read off the curve): ~0.01 µg/mL

B9: α-IGF1R 1 S239D/1332E (antibody, human IgG1, kappa, V domains shown)
VH: EVQLLESGGGLVQPGGSLRLSCAASGFTFSIYRMQWVRQAPGKGLEWVSGISPSGGTTWYADSVKGRFTISRDNSKNTLYLQMNSLRAEDTAVYYCARWSGGSGYAFDIWGQGTMVTVSS
VL: DIQMTQSPLSLSASVGDRVTITCQASRDIRNYLNWYQQKPGKAPKLLIYDASSLQTGVPSRFGGSGSGTDFSFTIGSLQPEDIATYYCQQFDSLPHTFGQGTKLEIKR
notes: hIgG1 with S239D/I332E; also called α-IGF1R 1 S239D/I332E; exemplary anti-IGF1R antibody (α-IGF1R 1)
[1]
  binding result: binds

B10: α-ANTXR1 2 mIgG2a S239D/1332E (antibody, V domains shown)
VH: QVQLKESPGALVKPTQTLTLTCTFSGFSLSTSGGGVSWIRQPPGKALEWLAHIYSNDDKSYSTSLKTRLTISKDTSKNQVVLTMTNMDPVDTATYYCARGGYFLDYWGQGTLVTVSS
VL: DIELTQPPSVSVAPGQTARISCSGDNIGGIYVHWYQQKPGQAPVLVIYADSKRPSGIPERFSGSNSGNTATLTISGTQAEDEADYYCQSYDITSLVFGGGTKLTVLG
notes: mIgG2a with S239D/I332E; also called α-ANTXR1 2 mIgG2a S239D/I332E; exemplary anti-ANTXR1 antibody (α-ANTXR1 2)
Human ANTXR1 ECD
  EC50 (read off the curve): ~0.02 µg/mL

B11: α-SIRPA 3 S239D/1332E (antibody, human IgG1, kappa, V domains shown)
VH: EVQLQQSGAELVKPGASVKLSCTASGFNIKDSYMHWVKQRTEQGLEWIGRIDPEDGETKYAPKFQGKATITADTSSNTAYLQLTSLTSEDTAVYYCARRGFYWGQGTTLTVSS
VL: QIVLTQSPAIMSASPGEKVTLTCSASSSVSSSYLYWYQQKPGSSPKLWIYSTSNLASGVPARFSGSGSGTSYSLTISSMEAEDAASYFCYQWSTHPYTFGGGTKLEIKR
notes: Chimeric: murine variable regions, hIgG1 constant region with S239D/I332E; also called α-SIRPA 3 S239D/I332E; exemplary anti-SIRPA antibody (α-SIRPA 3)
Human SIRPA ECD
  EC50 (read off the curve): ~0.3 nM

B12: α-uPAR 1 S239D/1332E (antibody, human IgG1, kappa, V domains shown)
VH: QVQLVESGGGVVQPGRSLRLSCAASGFTFSSYGMHWVRQAPGKGLEWVAVIWYDGSNKYYADSVKGRFTISRDNSKNTLYLQMNSLRAEDTAVYYCARDQHIVVVTAILDYWGQGTLVTVSS
VL: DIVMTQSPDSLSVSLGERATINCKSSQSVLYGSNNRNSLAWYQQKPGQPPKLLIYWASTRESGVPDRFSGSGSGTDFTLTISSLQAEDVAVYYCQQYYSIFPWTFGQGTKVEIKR
notes: hIgG1 with S239D/I332E; also called α-uPAR 1 S239D/I332E; exemplary anti-uPAR antibody (α-uPAR 1)
Human uPAR ECD
  EC50 (read off the curve): ~0.03 µg/mL
